Data reported in FireProtDB.

Conditions: Bombyx mori, whole UniProt chain shown; for Tm / unfolding enthalpy (calorimetric) / unfolding enthalpy (van 't Hoff): Thermal, DSC
[1] = pH 3.5, sodium acetate buffer 50 mM
[2] = pH 4, sodium acetate buffer 50 mM
[3] = pH 4.5, sodium acetate buffer 50 mM
[4] = pH 5, sodium acetate buffer 50 mM
[5] = pH 8, 25 °C, GdnHCl, CD, Tris-HCl 50 mM

B1: Lysozyme wild type, P48816 (protein)
chain: MQKLIIFALVVLCVGSEAKTFTRCGLVHELRKHGFEENLMRNWVCLVEHESSRDTSKTNTNRNGSKDYGLFQINDRYWCSKGASPGKDCNVKCSDLLTDDITKAAKCAKKIYKRHRFDAWYGWKNHCQGSLPDISSC
Tm (pH 3, glycine-HCl 50 mM): 45.2 °C | unfolding enthalpy (calorimetric) (pH 3, glycine-HCl 50 mM): 77.6 kcal/mol | unfolding enthalpy (van 't Hoff) (pH 3, glycine-HCl 50 mM): 80.9 kcal/mol | Tm (pH 3.25, glycine-HCl 50 mM): 51 °C | unfolding enthalpy (calorimetric) (pH 3.25, glycine-HCl 50 mM): 81.5 kcal/mol | unfolding enthalpy (van 't Hoff) (pH 3.25, glycine-HCl 50 mM): 86.7 kcal/mol | Tm [1]: 56 °C | unfolding enthalpy (calorimetric) [1]: 88.5 kcal/mol | unfolding enthalpy (van 't Hoff) [1]: 91.4 kcal/mol | Tm [2]: 59.3 °C | unfolding enthalpy (calorimetric) [2]: 91.9 kcal/mol | unfolding enthalpy (van 't Hoff) [2]: 92.4 kcal/mol | Tm [3]: 62.8 °C | unfolding enthalpy (calorimetric) [3]: 94.1 kcal/mol | unfolding enthalpy (van 't Hoff) [3]: 93.8 kcal/mol | Tm [4]: 65.3 °C | unfolding enthalpy (calorimetric) [4]: 99.7 kcal/mol | unfolding enthalpy (van 't Hoff) [4]: 95.1 kcal/mol | denaturant m value [5]: 3.4 kcal/mol/M | denaturant midpoint (higher = more stable) [5]: 2.39 M | unfolding free energy [5]: 8.1 kcal/mol
